Paper PMC9727190, “Characterization and identification of a novel chromosomal class C β-lactamase, LAQ-1, and comparative genomic analysis of a multidrug resistance plasmid in Lelliottia amnigena P13” (Frontiers in Microbiology, 2022)

What was measured:
[1] = biological target: T1, LAQ-1 (Lelliottia amnigena, UniProt A0A8F5JT47); assay: inhibition of nitrocefin hydrolysis, UV-VIS spectrophotometry; type: biochemical
T1 construct: gene blaLAQ

[2] = system: CCN1CCN(C(=O)N[C@@H](C(=O)N[C@@H]2C(=O)N3[C@@H]2SC(C)(C)[C@@H]3C(=O)O)c2ccccc2)C(=O)C1=O; assay: hydrolysis initial rates, UV-VIS spectrophotometry, Michaelis-Menten fit; type: biochemical, Lelliottia amnigena; conditions: 10 mM phosphate buffer pH 7.0, 37°C
Excerpt: (§1) hydrolysis initial rates, UV-VIS spectrophotometry, Michaelis-Menten fit on LAQ-1

[3] = system: CO[C@@]1(NC(=O)Cc2cccs2)C(=O)N2C(C(=O)O)=C(COC(N)=O)CS[C@@H]21; assay: as above; type: biochemical, Lelliottia amnigena; conditions: 10 mM phosphate buffer pH 7.0, 37°C
Excerpt: as §1

[4] = system: CC1(C)S[C@@H]2[C@H](NC(=O)[C@H](N)c3ccccc3)C(=O)N2[C@H]1C(=O)O; assay: as above; type: biochemical, Lelliottia amnigena; conditions: 10 mM phosphate buffer pH 7.0, 37°C
Excerpt: as §1

[5] = system: Cc1nnc(SCC2=C(C(=O)O)N3C(=O)[C@@H](NC(=O)Cn4cnnn4)[C@H]3SC2)s1; assay: as above; type: biochemical, Lelliottia amnigena; conditions: 10 mM phosphate buffer pH 7.0, 37°C
Excerpt: as §1

[6] = system: CC(C)(O/N=C(\C(=O)N[C@@H]1C(=O)N2C(C(=O)[O-])=C(C[n+]3ccccc3)CS[C@H]12)c1csc(N)n1)C(=O)O; assay: as above; type: biochemical, Lelliottia amnigena; conditions: 10 mM phosphate buffer pH 7.0, 37°C
Excerpt: as §1

[7] = system: CO/N=C(\C(=O)N[C@@H]1C(=O)N2C(C(=O)[O-])=C(C[N+]3(C)CCCC3)CS[C@H]12)c1csc(N)n1; assay: as above; type: biochemical, Lelliottia amnigena; conditions: 10 mM phosphate buffer pH 7.0, 37°C
Excerpt: as §1

T1 sequence (A0A8F5JT47 entry or part of it): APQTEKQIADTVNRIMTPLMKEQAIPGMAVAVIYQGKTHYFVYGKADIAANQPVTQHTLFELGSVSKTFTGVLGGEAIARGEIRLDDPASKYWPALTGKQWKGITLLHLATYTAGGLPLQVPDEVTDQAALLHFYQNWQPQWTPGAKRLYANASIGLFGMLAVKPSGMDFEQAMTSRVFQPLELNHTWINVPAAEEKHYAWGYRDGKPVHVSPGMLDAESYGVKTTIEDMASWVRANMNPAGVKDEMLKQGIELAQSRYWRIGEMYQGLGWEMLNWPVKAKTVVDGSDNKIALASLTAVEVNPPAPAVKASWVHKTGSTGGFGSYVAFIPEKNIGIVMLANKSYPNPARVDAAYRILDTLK

Molecule	IC50 [1] [nM]	Km [2] [µM]	kcat [2] [s⁻¹]	kcat/Km [2] [M⁻¹ s⁻¹]	Km [3] [µM]	kcat [3] [s⁻¹]	kcat/Km [3] [M⁻¹ s⁻¹]	Km [4] [µM]	kcat [4] [s⁻¹]	kcat/Km [4] [M⁻¹ s⁻¹]	Km [5] [µM]	kcat [5] [s⁻¹]	kcat/Km [5] [M⁻¹ s⁻¹]	Km [6] [µM]	kcat [6] [s⁻¹]	kcat/Km [6] [M⁻¹ s⁻¹]	Km [7] [µM]	kcat [7] [s⁻¹]	kcat/Km [7] [M⁻¹ s⁻¹]
Nc1nc2c(ncn2[C@@H]2O[C@H](COP(=O)(O)O)[C@@H](O)[C@H]2O)c(=O)[nH]1 [GMP]	2630	–	–	–	–	–	–	–	–	–	–	–	–	–	–	–	–	–	–
NC(=O)[C@@H]1CC[C@@H]2CN1C(=O)N2OS(=O)(=O)O [avibactam]	1.45	–	–	–	–	–	–	–	–	–	–	–	–	–	–	–	–	–	–
LAQ-1 (Lelliottia amnigena)	–	87.56	9430	1.08e+08	65.4	1110	1.69e+07	436.1	9140	2.1e+07	645	25700	3.99e+07	140	642	4.58e+06	57.05	467	8.18e+06
